# In PMC9167920:
# Target: CTSL-treated SARS-CoV-2 S protein ectodomain SR (cleaved at CS-1, T259/A260, and CS-2, Y636/S637) (SARS-CoV-2) (UniProt P0DTC2)
# Assay: cryo-EM structure
substance,measurement,value
"CTSL-treated SARS-CoV-2 S protein ectodomain SR (cleaved at CS-1, T259/A260, and CS-2, Y636/S637) (from UniProt P0DTC2) (domain or fragment)",stoichiometry N,3
